Data as given in the PETadex activity labels (doi:10.1007/s12010-013-0219-x).

B1: unnamed (protein)
chain: MPPHAARPGPAQNRRGRAMAVITPRRERSSLLSRALRFTAAAATALVTAVSLAAPAHAANPYERGPNPTDALLEARSGPFSVSEERASRFGADGFGGGTIYYPRENNTYGAVAISPGYTGTQASVAWLGERIASHGFVVITIDTNTTLDQPDSRARQLNAALDYMINDASSAVRSRIDSSRLAVMGHSMGGGGTLRLASQRPDLKAAIPLTPWHLNKNWSSVRVPTLIIGADLDTIAPVLTHARPFYNSLPTSISKAYLELDGATHFAPNIPNKIIGKYSVAWLKRFVDNDTRYTQFLCPGPRDGLFGEVEEYRSTCPF
B2: unnamed (protein)
chain: MAVMTPRRERSSLLSRALQVTAAAATALVTAVSLAAPAHAANPYERGPNPTDALLEASSGPFSVSEENVSRLSASGFGGGTIYYPRENNTYGAVAISPGYTGTEASIAWLGERIASHGFVVITIDTITTLDQPDSRAEQLNAALNHMINRASSTVRSRIDSSRLAVMGHSMGGGGTLRLASQRPDLKAAIPLTPWHLNKNWSSVTVPTLIIGADLDTIAPVATHAKPFYNSLPSSISKAYLELDGATHFAPNIPNKIIGKYSVAWLKRFVDNDTRYTQFLCPGPRDGLFGEVEEYRSTCPF

Tests used:
pNPB [1] = assay: Proxy for plastic degradation [Relative activity]
pNPB [2] = assay: Proxy for plastic degradation [kcat/Km (catalytic efficiency)] (µM⁻¹s⁻¹); settings: pH 8
pNPB [3] = assay: Proxy for plastic degradation [p-nitrophenol (pNP) release] (% relative activity); settings: pH 8

Protein | Proxy for plastic degradation (pNPB [1]; pH 5) [%] | Proxy for plastic degradation (pNPB [1]; pH 6) [%] | Proxy for plastic degradation (pNPB [1]; pH 6.8) [%] | Proxy for plastic degradation (pNPB [1]; pH 7.5) [%] | Proxy for plastic degradation (pNPB [1]; pH 9) [%] | Proxy for plastic degradation (pNPB [2]) | Proxy for plastic degradation (pNPB [3]; 25 °C) | Proxy for plastic degradation (pNPB [3]; 30 °C) | Proxy for plastic degradation (pNPB [3]; 37 °C) | Proxy for plastic degradation (pNPB [3]; 40 °C) | Proxy for plastic degradation (pNPB [3]; 45 °C) | Proxy for plastic degradation (pNPB [3]; 50 °C) | Proxy for plastic degradation (pNPB [3]; 55 °C) | Proxy for plastic degradation (pNPB [3]; 60 °C) | Proxy for plastic degradation (pNPB [3]; 70 °C) | Proxy for plastic degradation (pNPB [3]; 80 °C) | Proxy for plastic degradation (pNPB [3]; 15 h) | Proxy for plastic degradation (pNPB [3]; 30 h) | Proxy for plastic degradation (pNPB [3]; 40 h) | also measured
B1 | 35 | 60 | 75 | 90 | 75 | 1.35 | 31 | 37.5 | 45 | 70.5 | 75 | 95.5 | 100 | 93.5 | 74 | 67.5 | 98 | 50 | 40 | Proxy for plastic degradation (pNPB [3]; 0 h): 100
B2 | 30 | 59 | 75 | 92 | 75 | 2.84 | 29 | 35.5 | 51 | 68.5 | 80.5 | 93.5 | 100 | 91.5 | 79 | 67 | 93 | 47 | 38 | Proxy for plastic degradation (pNPB [1]; pH 8): 100%; Proxy for plastic degradation (pNPB [1]; pH 8, 25 °C): 29%; Proxy for plastic degradation (pNPB [1]; pH 8, 30 °C): 35%; Proxy for plastic degradation (pNPB [1]; pH 8, 37 °C): 50%; Proxy for plastic degradation (pNPB [1]; pH 8, 40 °C): 69%; Proxy for plastic degradation (pNPB [1]; pH 8, 45 °C): 80%; Proxy for plastic degradation (pNPB [1]; pH 8, 50 °C): 93%; Proxy for plastic degradation (pNPB [1]; pH 8, 55 °C): 100%; Proxy for plastic degradation (pNPB [1]; pH 8, 60 °C): 92%; Proxy for plastic degradation (pNPB [1]; pH 8, 70 °C): 78%; Proxy for plastic degradation (pNPB [1]; pH 8, 80 °C): 65%
